B1: E3 ubiquitin-protein ligase makorin-1 (Homo sapiens), Q9UHC7 (parent)
chain: MAEAATPGTTATTSGAGAAAATAAAASPTPIPTVTAPSLGAGGGGGGSDGSGGGWTKQVTCRYFMHGVCKEGDNCRYSHDLSDSPYSVVCKYFQRGYCIYGDRCRYEHSKPLKQEEATATELTTKSSLAASSSLSSIVGPLVEMNTGEAESRNSNFATVGAGSEDWVNAIEFVPGQPYCGRTAPSCTEAPLQGSVTKEESEKEQTAVETKKQLCPYAAVGECRYGENCVYLHGDSCDMCGLQVLHPMDAAQRSQHIKSCIEAHEKDMELSFAVQRSKDMVCGICMEVVYEKANPSERRFGILSNCNHTYCLKCIRKWRSAKQFESKIIKSCPECRITSNFVIPSEYWVEEKEEKQKLILKYKEAMSNKACRYFDEGRGSCPFGGNCFYKHAYPDGRREEPQRQKVGTSSRYRAQRRNHFWELIEERENSNPFDNDEEEVVTFELGEMLLMLLAAGGDDELTDSEDEWDLFHDELEDFYDLDL

Variants of: B1
Conditions: with ubc_human UBC

effect of a mutation on the interaction | Variant
disrupting interaction | H307E
